Assay results reported in patent US20070180545A1.
Where “and” joins values, the source holds several entries; their conditions need not be identical. Equal entries are not always repeated.

Experiments:
[1] = biological target: TAT-031 as present on the surface of human tumor cell lines (PC3, H1299, HL-60) (human) (UniProt P08195); test: flow cytometry on H1299 human tumor cells
[2] = biological target: TAT-031 as present on the surface of human tumor cell lines (PC3, H1299, HL-60) (human) (UniProt P08195); test: flow cytometry on HL-60 human tumor cells
[3] = biological target: TAT-031 (full-length clone expressed from phCMV1-TAT-031 on stably transfected cells) (human) (UniProt P08195); test: flow cytometry on BaF3 cells stably transfected with TAT-031 (SLC3A2)
[4] = biological target: TAT-031 as present on the surface of human tumor cell lines (PC3, H1299, HL-60) (human) (UniProt P08195); test: flow cytometry on PC-3 human tumor cells

relative geometric mean fluorescence (relative geometric mean fluorescence) [1]: 527 and 419 and 389 | relative geometric mean fluorescence (relative geometric mean fluorescence) [2]: 118 and 257 and 205 | relative geometric mean fluorescence (relative geometric mean fluorescence) [3]: 165 and 102 | relative geometric mean fluorescence (relative geometric mean fluorescence) [4]: 153 and 98.6 and 86
Substance: Mouse monoclonal antibody 44D7 (Abcam, Cat#AB23495)
